Test results: the supplement of paper PMC10567573
± gives the standard deviation.

Test: protein stability index of a GFP-peptide fusion (GPS, HEK-293T) (PSI 1-6); higher = more stable
[1] = treatment: DMSO, c terminus: a fixed tail appended
[2] = treatment: MLN4924 1 uM, 8 h, c terminus: a fixed tail appended
[3] = treatment: DMSO, c terminus: native
[4] = treatment: MLN4924 1 uM, 8 h, c terminus: native
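Also: 24-mer peptide tiles fused after GFP, lentivirally expressed, FACS-sorted into six equal bins by GFP/DsRed ratio, decoded by Illumina sequencing, PSI is the read-weighted mean bin number.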

Row | Sequence | protein stability index [1] | protein stability index [2] | protein stability index [3] | protein stability index [4]
1 | PAPPSDALLDLHFPSDHLGDLGDP [TFE3] | 5 ± 0.23 | 5.1 ± 0.17 |  | 
2 | IVILENIAVAWIYGTKKFMQELTE [SLC6A17] | 3.05 ± 1 | 2.92 ± 0.2 |  | 
3 | EQLQQILKRKNKQAFLDELESSDL [MNAT1] | 3.48 ± 0.46 | 3.73 ± 0.39 |  | 
4 | TEIANCSLKVKFFDLERENACATK [PLD5] |  | 3.92 ± 0.4 |  | 
5 | KGGAVAADGRIEPGDMLLQVNEIN [DVL3] | 4.49 ± 0.19 | 4.59 ± 0.14 |  | 
6 | LAELQEQLKAVHEQLAALSQAPVN [BRD3] | 4.2 ± 0.3 | 4.24 ± 0.43 |  | 
7 | YMSINTHLGKEQSRRDDLEALGHM [CSNK1G1] | 3.28 ± 0.19 | 3.74 ± 0.29 |  | 
8 | NMEELTEVITAAEFHPHHCNTFVY [PPP2R2B] | 2.38 ± 0.25 | 2.59 ± 0.33 |  | 
9 | KTPVLLTDYPVDLDEIAYFTWAS [MYORG] |  |  | 2.25 ± 0.15 | 2.18 ± 0.3
10 | RSKSGSEEVLCDSCIGNKQKAVKS [TRIM29] | 4.96 ± 0.31 | 5.19 ± 0.11 |  | 
11 | LQELKKLKNSNYESIQQTARSIAE [PPTC7] | 3.9 ± 0.51 | 3.76 ± 0.46 |  | 
12 | MSRMQSKEYPVVPRSTVRQKVASN [TBX5] | 4.25 ± 0.24 | 4.15 ± 0.087 |  | 
13 | KGKQPTSAENSVAKKEDKVPVKKQ [NANOGP8] | 5.37 ± 0.32 | 5.44 ± 0.14 |  | 
14 | MSWAKLARQATNLKVNFFFERIMK [FBXO39] | 2.34 ± 0.19 | 2.22 ± 0.35 |  | 
15 | FTFLSAKCLQGNADGDGGGGQCCR [PCDHGC5] | 2.97 ± 0.18 | 3.29 ± 0.26 |  | 
16 | SQYIAVEAAEGRNKNEVFYQCPDQ [FBXO3] | 4.46 ± 0.061 | 4.74 ± 0.094 |  | 
17 | VNPWKREVKLLLSSETPIEGKNMS [APMAP] | 3.44 ± 0.25 | 3.62 ± 0.42 |  | 
18 | LKTADWRVFLFQAPSKEEMLSWIL [PSD2] | 2.16 ± 0.57 | 2.04 ± 0.38 |  | 
19 | CCINSHCGWPRGKDAPCYESDTDI [DRICH1] | 2.94 ± 0.3 | 3.02 ± 0.29 |  | 
20 | ISNIFSNYFSAMYSSEDSTLASVP [ELF3] | 2.2 ± 0.25 | 2.1 ± 0.18 |  | 
21 | QKGLGGAMVWALDLDDFAGFSCNQ [CHIT1] | 2.31 ± 0.32 | 2.42 ± 0.16 |  | 
22 | VEPVCSGLQAQILHCYRDRPHEVL [CHCHD6] | 2.93 ± 0.21 | 2.94 ± 0.5 |  | 
23 | SYLDKVRALEEANTELEVKIRDWY [KRT17] | 2.97 ± 0.23 | 3.07 ± 0.32 |  | 

Row | Sequence | protein stability index [1] | protein stability index [2] | protein stability index [3] | protein stability index [4]
24 | VSTGSTDNSPTSNSLEGGTDATAF [ADAMTSL2] | 4.97 ± 0.28 | 5.31 ± 0.28 |  | 
25 | LDEPNAESDYTYSSSYEQFNGELP [SRPK2] | 4.78 ± 0.28 | 4.62 ± 0.19 |  | 
26 | WEYPGSQGSPAVDKERFTTLVQDL [CHIT1] | 3.9 ± 0.25 | 3.89 ± 0.19 |  | 
27 | EVSNPSKPGRKTNQLQYMQNVVVK [BRD3] | 3.66 ± 0.11 | 3.79 ± 0.28 |  | 
28 | CSECGESFSRSSRLMSHQRTHTG [ZNF263] |  |  | 3.02 ± 0.6 | 3.53 ± 0.95
29 | HNAVTSHQRPGWPGQPHSPFPHPT [NCF4] | 3.11 ± 0.17 | 3.67 ± 0.21 |  | 
30 | QLDSRYWRITNAKGDVEEVQGPGV [FBXO3] | 4.14 ± 0.22 | 4.22 ± 0.14 |  | 
31 | LQMAVLVEKQADTLNVIELNVQKT [STX11] | 2.59 ± 0.22 | 2.67 ± 0.26 |  | 
32 | MKRDVQEGQARCLAHLGRHMEALE [C8orf76] | 3.66 ± 0.22 | 3.97 ± 0.35 |  | 
33 | CSSCQRSWASAQVQILCHTYWEHW [RTP4] | 2.3 ± 0.52 | 2.36 ± 0.28 |  | 
34 | VNKITFSEQCYYIFGDLCGNMANL [DVL3] | 2.66 ± 0.38 | 2.36 ± 0.37 |  | 
35 | EEEDREEEDENGLPRRRGLRKKKT [NEUROD6] | 5.53 ± 0.59 | 5.52 ± 0.37 |  | 
36 | DQIEDMFEQGKWDVFSENLLADVK [STX11] | 3.75 ± 0.14 | 3.76 ± 0.3 |  | 
37 | EHTGEVRTARALLDRDALKQSLVV [PCDHGA10] | 3.23 ± 0.2 | 3.3 ± 0.26 |  | 
38 | GAELHLQPLEGGTPNSAGGPGAHI [ADAMTS4] | 4.51 ± 1.1 | 4.74 ± 0.36 |  | 
39 | RTPEPLEEFPKREDQEGSPPETSL [MYBL2] | 5.4 ± 0.36 | 5.56 ± 0.23 |  | 
40 | AVCLLGVGTMVGADILAGREDNSG [SLC35F2] | 3.17 ± 0.5 | 3.11 ± 0.2 |  | 
41 | VPLCSCRMETPKSREITTLANNQC [EHMT1] | 2.62 ± 0.17 | 2.81 ± 0.24 |  | 
42 | ENLEGVPSVCSENIHPQVLLPDQA [ZNF263] | 5 ± 0.39 | 4.96 ± 0.11 |  | 
43 | HSAAYRADPLRVSSRDKLTEMAAS [FUNDC2] | 3.92 ± 0.3 | 4.23 ± 0.22 |  | 
44 | TFLVFSKAELGALPHDFIDSLEKT [NLN] | 2.13 ± 0.26 | 2.5 ± 0.25 |  | 
45 | LRSPNNFLSYYRLTRFLSRVIKCD [CCND1] | 2.24 ± 0.42 | 2.44 ± 0.2 |  | 
46 | LASHHNHFSQIVIFMLCTLVLAIP [OR10K2] | 3.06 ± 0.22 | 3.13 ± 0.18 |  | 

Row | Sequence | protein stability index [1] | protein stability index [2] | protein stability index [3] | protein stability index [4]
47 | LSTPDSQSLRCDLIRYICGVVHPS [INTS3] | 2.29 ± 0.46 | 2.29 ± 0.3 |  | 
48 | EAASFLQILPVLDFCKVFLISGVT [KLHL13] | 3.43 ± 0.78 | 2.96 ± 0.13 |  | 
49 | VQITGQPNILFYASTVLKSVGFQS [SLC2A12] | 3.12 ± 0.57 | 2.58 ± 0.45 |  | 
50 | AAARGGQCPGLGPAPTPTPPGRLG [ZBED3] | 4.36 ± 0.24 | 4.63 ± 0.34 |  | 
51 | VFRVSSDKLALCHLELTRKLQDLI [FCHO1] | 2.28 ± 0.46 | 2.03 ± 0.61 |  | 
52 | GSARYDFSHEILRDEESFFGERRI [ALKBH7] | 3.75 ± 0.29 | 3.71 ± 0.5 |  | 
53 | KIRKPRTIYCSLQLQALNRRFQQT [DLX1] | 2.45 ± 0.78 | 1.95 ± 0.51 |  | 
54 | RDFRPTDQEEIKTLERYMCSRFFI [TENT5C] | 2.63 ± 0.39 | 2.71 ± 0.17 |  | 
55 | PENTNRQLLLQFERLVVLDYIIRN [PI4K2A] | 2.77 ± 0.34 | 2.56 ± 0.68 |  | 
56 | QVQLGLRCCGAASYQDWQQNLYFN [TSPAN10] | 3.12 ± 1.1 | 2.81 ± 0.91 |  | 
57 | LGKILSVELGKQKKKYMPYNHQHK [FADS1] | 2.55 ± 0.12 | 2.69 ± 0.23 |  | 
58 | MLNMWKVRELVDKATNVVMNYSEI [CLINT1] | 2.4 ± 0.17 | 2.23 ± 0.22 |  | 
59 | LAGMANHGSPQLGEGMFQHQTSVA [TBX5] | 3.83 ± 0.2 | 3.83 ± 0.13 |  | 
60 | AELVLLTLGQAWQGYVSDIRRFLS [DFFB] | 2.12 ± 0.17 | 2.06 ± 0.21 |  | 
61 | SQGAISEGAQRDRFPGRKQPGVHE [C22orf31] | 5.05 ± 0.095 | 5.1 ± 0.18 |  | 
62 | SIARLEMGPDEYEEMEEEEEEEEE [FBXO3] | 5.41 ± 0.26 | 5.62 ± 0.28 |  | 
63 | SFGLRFGKREAAPGNHGRSAGRG [KISS1] |  |  | 3.23 ± 0.21 | 2.64 ± 0.45
64 | GLSSVSPSHLLLPPDTVSRTGLEK [SPDEF] | 4.52 ± 0.23 | 4.33 ± 0.2 |  | 
65 | RASALLASCSKNCTNSPAIVRFSG [FBXO34] | 2.24 ± 0.24 | 2.59 ± 0.19 |  | 
66 | LEQDLQQVMVSGPNLNETSIVSGG [ARFIP2] | 5.03 ± 0.26 | 4.99 ± 0.12 |  | 
67 | GLLLRGAVDGILHMFTPKLDKMLD [SLC6A17] | 2.35 ± 0.47 | 2.43 ± 0.66 |  | 
68 | PGDFDRNVPRICGVCGDRATGFHF [VDR] | 2.19 ± 0.13 | 2.64 ± 0.27 |  | 
69 | WSVTGKAEPAMPGRLYVHPDSPAT [TBX5] | 3.67 ± 0.17 | 3.62 ± 0.22 |  | 

Row | Sequence | protein stability index [1] | protein stability index [2] | protein stability index [3] | protein stability index [4]
70 | WTRITCAEEGWSPTPKCLRLCFFP [CFHR2] | 2.82 ± 0.71 | 2.6 ± 0.46 |  | 
71 | AQDLMDGLPPGDSNQLAWFDTDL [CTNNB1] |  |  | 5.29 ± 0.094 | 5.09 ± 0.081
72 | VGVDRAFPLKPMVHRKSCSTGEAG [ZC2HC1C] | 3.74 ± 0.18 | 4.2 ± 0.16 |  | 
73 | FPPEGNMEDKEMTGPQLPESLEDV [ZNF263] | 5.58 ± 0.21 | 5.48 ± 0.22 |  | 
74 | FSDSRSNNDDDEDEDDEDEDEDED [TAF7L] | 5.7 ± 0.19 | 5.58 ± 0.41 |  | 
75 | NVMTQSFGAVNLSSPSNMLPVRPQ [CLINT1] | 3.86 ± 0.2 | 3.99 ± 0.51 |  | 
76 | LHAAAAGGNVECIKLLQSSGADFH [ANKRD44] | 3.37 ± 0.091 | 3.46 ± 0.22 |  | 
77 | FARNGALSTHNWTYWQCGQYLGVG [RSAD1] | 2.63 ± 0.66 | 2.17 ± 0.17 |  | 
78 | YGLRGPHKADSIQGTARTLSPVLE [TNXB] | 3.93 ± 0.36 | 3.84 ± 0.14 |  | 
79 | TATREEASTSLPTKPTQGASSASE [CLPTM1] | 5.47 ± 0.34 | 5.4 ± 0.46 |  | 
80 | WYQVRCLFQSPLFAKAGDTLSGTC [CARM1] | 2.77 ± 0.72 | 2.35 ± 0.53 |  | 
81 | QRAFSIQTPEQYYFCYKAILEFAE [PTPN9] | 2.16 ± 0.29 | 2.16 ± 0.35 |  | 
82 | LNLEEDRIQIWFQNRRAKLKRSHR [HESX1] | 2.86 ± 0.18 | 3.16 ± 0.36 |  | 
83 | GLCKQDGQLRVFGAGLLSSISELK [TPH1] | 2.05 ± 0.28 | 2.39 ± 0.4 |  | 
84 | SVGFQSNEAASLASTGVGVVKVIS [SLC2A12] | 3.68 ± 0.64 | 3.6 ± 0.41 |  | 
85 | DGLPDLGHAQDLMDGLPPGDSNQL [CTNNB1] | 5.33 ± 0.26 | 5.4 ± 0.19 |  | 
86 | GEGRSRGSANDYKDTLGKGSSLSA [KRT71] | 4.65 ± 0.52 | 4.96 ± 0.35 |  | 
87 | ARFITDFLDNGYGHCLLDKPEAPL [ADAMTS4] | 2.19 ± 0.2 | 2.01 ± 0.22 |  | 
88 | PKAQSAMSPYLVPDTQALCHHLPV [SMG5] | 3.34 ± 0.2 | 3.38 ± 0.12 |  | 
89 | SESMENINSGYETRRKKGKKDKDI [KMT2E] | 5.01 ± 0.33 | 5.39 ± 0.42 |  | 
